Test: soluble on expression in E. coli; label from the status in PepcDB or PDB records

Sequence | soluble on expression in E. coli
MQVEQRTLNTAAHPFQITAYWLDQISDFETAVDYPIMIICPGGGFTYHSGREEAPIATRMMAAGMHTVVLNYQLIVGDQSVYPWALQQLGATIDWITTQASAHHVDCQRIILAGFSAGGHVVATYNGVATQPELRTRYHLDHYQGQHAAIILGYPVIDLTAGFPTTSAARNQITTDARLWAAQRLVTPASKPAFVWQTATDESVPPINSLKYVQAMLQHQVATAYHLFGSGIHGLALANHVTQKPGKDKYLNDQAAIWPQLALRWLQEQGLLAGNYLEHHHHHH | soluble
MQVLHVCSEMFPLLKTGGLADVIGALPAAQIADGVDARVLLPAFPDIRRGVTDAQVVSRRDTFAGHITLLFGHYNGVGIYLIDAPHLYDRPGSPYHDTNLFAYTDNVLRFALLGWVGAEMASGLDPFWRPDVVHAHDWHAGLAPAYLAARGRPAKSVFTVHNLAYQGMFYAHHMNDIQLPWSFFNIHGLEFNGQISFLKAGLYYADHITAVSPTYAREITEPQFAYGMEGLLQQRHREGRLSGVLNGVDEKIWSPETDLLLASRYTRDTLEDKAENKRQLQIAMGLKVDDKVPLFAVVSRLTSQKGLDLVLEALPGLLEQGGQLALLGAGDPVLQEGFLAAAAEYPGQVGVQIGYHEAFSHRIMGGADVILVPSRFEPCGLTQLYGLKYGTLPLVRRTGGLADTVSDCSLENLADGVASGFVFEDSNAWSLLRAIRRAFVLWSRPSLWRFVQRQAMAMDFSWQVAAKSYRELYYRLK | not soluble
MQVLRLMALPLFALSLSVSITGCDQKNDTLQGKQNNMTAFIKKIAASKESEETQRYVGNLNGIEIKLTYYYKGDIVLRQISEHKLLYKTLKANNKEEAQKMLSQVGEAYQGMPGLTERIDYYDSYATEYVDINFTQAKISDLCKLPGSSIDNCSAYYLSMIRSQKLLEESGYHRIN | not soluble
MQVLSEATPMTNGEVYALLRRRRDERNAARHPPFGLQPVLADSHQRAAVATGAAAATAVAPSAPASASAISRAASVMSHNSVGQHSGSKAAPAGAIESAASAAAASTASILASPSSVHLVVLLTEVTMLNYIANHSSLLLESARPTPAGVRVRTCTPRDVYGPTSVYNRVVGTEGRSDAAVGASATAAGSLLDAELVSSCYAKLASHRPGTRGHVRGVEELLEHFEEVGRAQERLYAAGVRRAVQQLWRRRLWVPAEGLYPPPSPPFATTAPSLSNGSALVKAEPVAEEDVDGTAEAVQRLSQDKAARQSGAGETNHDAEGAQPTNASHLVTPLLLEPTPLWGPAARNGGGKGSVDGGAATASMAHSPLSYHVQLQLQQASRSLLSEAEVLQLVVGRPQRALDVYRLLDDVDDRLQYREEAVNAFVEAVTGVFAE | not soluble
MQVQRAITRNLAKANGYFNKTFKPPTVNYTVRGLKAGVAYLQQNQIRFNPILLQENGQAFIQQVIPHELAHILVFQQFGHVLPHGKEWQMMMEQVLGTSAEVYHTFNTQNVAGQQFAYICACQTHLLSIRLHNAILKNKRQYICKQCKQVLYYKDVLANYSNNTKKLEHHHHHH | not soluble
MQYIKIHALDNVAVALADLAEGTEVSVDNQTVTLRQDVARGHKFALTDIAKGANVIKYGLPIGYALADIAAGEHVHAHNTRTNL | soluble
MRAADAPDAPLPEDRRNAPVWFAHDLEAPRCTALFPRLADRRPALVVVGGFLGSGKTTFLNNCIEYHRARERFVAVIQNEVGATGVDARLMGDGAEVLALDEGCVCCSLAGSLAGGIRAITADFTPEVILLETTGLANPLNLLAELDTLRDMVRLDAVVTVVDAANIVPTLRDSDIARDQIRGADIIVCNKCDTVDETGRAALRATLTGLNGRAALHETSFGRIHPSLFMALEGERPPRGLMPAPHGTHATHADEGFAAVRLFFSGTIDEAALAPLLQQCPGAPFRIKGIVRVTDDEAPRLVQCVGARCEVERLDGGFEGTPFLVFIGRNPDETALLEHWAALGATAEPPAPQAEADTQPAQATKSASGGQSSDATRGCHDHHLEHHHHHH | not soluble
MRALGQNPTNAEVLKVLGNPKSDEMNVKVLDFEHFLPMLQTVAKNKDQGTYEDYVEGLRVFDKEGNGTVMGAEIRHVLVTLGEKMTEEEVEMLVAGHEDSNGCINYEELVRMVLNG | soluble
MRALLFTSVVLLALAFVEAKKQTITVKGTTICNKKRIQAEVTLWEKDTLDPDDKLASMQSNKEGEFSLTGSDDEITSISPYLIITHNCNVKKAGCKRVSEYLIPKEKIGGTYDMTYVTLDILSAKDKEKC | not soluble
MRANIWQILSVSVLFFFGTAIGQAQSRNRTYEAYVKQYADEAIRQMSRYNIPASITIAQALVETGAGASTLASVHNNHFGIKCHKSWTGKRTYRTDDAPNECFRSYSAARESYEDHSRFLLQPRYRPLFKLDREDYRGWATGLQRCGYATNRGYANLLIKMVELYELYALDREKYPSWFHKSYPGSNKKSHQTTKQKQSGLKHEAYFSYGLLYIIAKQGDTFDSLAEEFDMRASKLAKYNDAPVDFPIEKGDVIYLEKKHACSISKHTQHVVRVGDSMHSISQRYGIRMKNLYKLNDKDGEYIPQEGDILRLR | not soluble
MRAVFRTDIGQIREHNEDSGGVFVNQSGQYLAVVADGMGGHRAGDVASSMAVAYLQERWEKESGLASPAEAEQWLKTQIASANEQLFRHALSHPECQGMGTTVVAAVCANSFATVAHIGDSRCYVLNKSGIQQLTDDHSLVNELVKSGQLSKEAAEHHPRKNVLLRALGTEPAVKIDVKTVALDEGDMLLLCSDGLSNKVPEADMIHILTGAGTLEEKAEALIQLANGRGGEDNISLAVIDVSAEREGG | not soluble
MRAVVLKGFGGLEMLEERDLPVPEPGPGEVLVRNLAVAVNPVDAKIRAAGRWAGVEPPFVLGYDAAGVVAKVGPGVKDLKEGDEVYYTPEIFGNPHGTYAEYTPVPAGIVAKKPKNLSFAEAAAIPLAGGTAWKAVVRRLAVRPGETVLVMGGAGGVGSFAVQFAKAAGAYVIATASAENLPVLKELGADLALDYRGPWAEEVLKATEGQGVDAAFETAGESLVERVIPVVRPFGRIATILPPQGNLSGLYTKNQTLYGVFLTRERKRLLEMRPLFERGLARPLIAEVLPFSLENLRKAHARMDSGHGRGKIVLTFQA | soluble
MRCMTLPAYDIAILGAGPVGRVLALLLARLTPQPQRIALLQGGAGLPPTPAGTLGPAADPRVLALNHGSRVLLESLRAWPAHAAEIRHIHVSQRGRLGRTVIDREDFDVPQLGNVVAYAALHAQLEQAVQDCGVTVLSGPPARVDGQDGEGLTVRQGDAALHCRLAVQCDGAGGSDVRRDYAQHAVLTSAHATLPRSGWAWERFTNEGPLAMLPHPQTPEAYSVVWCCAPPRAQRLAGLDDEAFSRELTEAFGTRLGRLRSAAPRHVFPLELKARHAQAHGRLATIGNAAQTLHPVAGQGLNLGLRDAAQLAHALPDWLAAPQADPSPLLAAFARARLADRWVTAGLTDLMPRIFATGLAPVEHACGLALLGLDIAAPLRAPLARHLLQGLRV | not soluble
MRDMGEPKLKIVAMPSDTNPAGNIFGGWILSQIDLAGAIAARELSPERVVTISMDKVVFKEPVFIGDIISCYSKVVNVGNTSISVEVEVTAQRVDSQGCTSCINVTSALVTYVSVTRDGKKNPISEELKRIHGFLNALEHHHHHH | soluble
MRDSLNNGVSLQQAQETYFAKFNHYSYMAHFVAKILGQRPSHVLSGWGVSELIVAYGHYANEQSYQNFMDWKSSQENAPKPKQPQPFVVQFISQDELEEVE | not soluble
MRECISIHVGQAGVQIGNACWELYCLEHGIQPDGQMPSDKTIGGGDDSFNTFFSETGAGKHVPRAVFVDLEPTVIDEVRTGTYRQLFHPEQLITGKEDAANNYARGHYTIGKEIIDLVLDRIRKLADQCTGLQGFSVFHSFGGGTGSGFTSLLMERLSVDYGKKSKLEFSIYPAPQVSTAVVEPYNSILTTHTTLEHSDCAFMVDNEAIYDICRRNLDIERPTYTNLNRLIGQIVSSITASLRFDGALNVDLTEFQTNLVPYPRAHFPLATYAPVISAEKAYHEQLSVAEITNACFEPANQMVKCDPRHGKYMACCLLYRGDVVPKDVNAAIATIKTKRTIQFVDWCPTGFKVGINYEPPTVVPGGDLAKVQRAVCMLSNTTAIAEAWARLDHKFDLMYAKRAFVHWYVGEGMEEGEFSEAREDMAALEKDYEEVGVDSVEGEGEEEGEEY | soluble
MRFEEEIGSLQMLCDQFQNKINTLEKQMNEEKKDYVQKLHRLHEKNGEAIDKMKQLDHTMQAVSTKVVHLGDQLESVDQPRSRAHDAHQLMQHFDEFLSDQPLNSMIFTDPDKLLESADLVHKLYSISQELNKDKFANVQARIGQRYKVVEDLLIEEFVRSQRDEKKMAEVAKILSEFKGYSGCVDRYVDFLCQSIHPRGDGGEILADCLQLCRTQQPRISAIFPSPHTVMQKLVLNIFTGRMKETITARLRECKDTDDQEHYLRDLAYLYSSTLKMCKELEKLHISPDSAFLSTLTDSIFQRYIATYCSEELKYLNDQCSNLLQRFYESKKHVKKQIGGGLHELKRDVAARLMNVETYGGETFVAEDVAISILQETKNAFGRANQLCDKEELPRHVENIVDVLLKYLYGEHLDYAVETGLAGISLAESKTEPPAYFFSVVAKCTSVILLMIKQFEDPIFPIIKETIVEPSVAKKWQQSLRSLESKMSLGLERQLNSIVGYVKFLFSEQKKTDFRPDSQQIDIRVSPQCQLASRFLANQVAAMELGCDGENLEALQSDLATRLFKFMLTHIQQFTYNSTGAVLLLCDVGELRTLVSKWRVQNALTQWESLQALTNLLAVLPDQVNETAHSSLLENVDRQLIHDFVRLRTDFRSIKNFQI | not soluble
MRFKVVGKNIVVTEALKEAAVKKVGKLDKYFRRDAEATITMSVQKNRHIVEVTIPFEGGLLRAEEDSPDMYASIDKVIDSLERQIRRNKTKLEKKVHDGSLRFENIKFDDDEVEEEPKFEVVRTKKFAIKPMTVEEAILQMNLLGHQFFMFSNAETNEANVVYRRKDGNYGLIEPEF | not soluble
MRFLHTADWQLGMTRHFLNGEAQPRYSASRREAVASLGEIAKRTGAEFVVVSGDVFEHNQLAPRDVSQSLEAMRAIGVPVYLLPGNHDPLDASSVYTSALFVAERPDNVVVLDRAGVHEVRPGVQIVAAPWRSKAPTSDLIGDVLADLPADGVTRVLVGHGGVDILDPDKNKPSLIRMAAVEDALARGAVHYVALGDKHSRTEVGGSGRVWYSGSPEVTNYDDIESDPGHVLVVDIDENDARRAVRVESEKVGRWRFVTLRRSVDTDRDIADLDLNLDLLDDKERTVVRLALTGSLTVTDKAKLDECLDRYARLFAALTTWERLEHHHHHH | not soluble
MRGRPIELEPWQQFAFACILGFKVKATGRRKYTSAFIEVPRKNAKSTTAAILANWFLIMENGQQDIYTAAVSRDQARIVFDNARQMCLLSRPLRRRVNIQAHKVIHPKSNSLLKPLAAKAATIEGTNPSLSIVDEYHLHPDNGVYSALELGMGARPEGLLFAITTSGSNVVSACKQHYDYCCQILDGEEVNDSIFVLIYELDDENEVDDPAMWIKANPNIDVSVDREKLASTIQKARGIPSQWVEMMTKRFNIWCQGTTPWMGNGAWAECAGTFTEEDLHGQECYAGLDLSSTSDISSVCYAFPVGKTIMLISRHYLPEFQLQNPANKNRAVYRQWAKAGWIRTTPGDCIDYDRIRDDIMQDAEKFNIRLVGFDTWNATHLRTQLQGAGFEVEPFPQTYLRFSPAAKSFEVFVNRRVIVHRGDPVLSWSMSNVVMQSDANANIKPNKKKSPNKIDPSVAALMAFGTFQAEHEDFAFDISDSHRQKLEEFSGV | not soluble
MRGSHHHHHHGSLQVTVRDAINQGMDEELERDEKVFLLGEEVAQYDGAYKVSRGLWKKYGDKRIIDTPISEMGFAGIAVGAAMAGLRPICEFMTFNFSMQAIDQVINSAAKTYYMSGGLQPVPIVFRGPNGASAGVAAQHSQCFAAWYGHCPGLKVVSPWNSEDAKGLIKSAIRDNNPVVVLENELMYGVPFEFPPEAQSKDFLIPIGKAKIERQGTHITVVSHSRPVGHCLEAAAVLSKEGVECEVINMRTIRPMDMETIEASVMKTNHLVTVEGGWPQFGVGAEICARIMEGPAFNFLDAPAVRVTGADVPMPYAKILEDNSIPQVKDIIFAIKKTLNI | soluble
